Results reported in patent publication US20250136720A1 (Boehringer Ingelheim, published 2025).
Positions count from the first letter of the chain named.

B1: CD137 #3 (B21.V22) + FAP #3 (A11 VK7/VH1) (bispecific antibody, human IgG1, kappa, L234A L235A)
heavy: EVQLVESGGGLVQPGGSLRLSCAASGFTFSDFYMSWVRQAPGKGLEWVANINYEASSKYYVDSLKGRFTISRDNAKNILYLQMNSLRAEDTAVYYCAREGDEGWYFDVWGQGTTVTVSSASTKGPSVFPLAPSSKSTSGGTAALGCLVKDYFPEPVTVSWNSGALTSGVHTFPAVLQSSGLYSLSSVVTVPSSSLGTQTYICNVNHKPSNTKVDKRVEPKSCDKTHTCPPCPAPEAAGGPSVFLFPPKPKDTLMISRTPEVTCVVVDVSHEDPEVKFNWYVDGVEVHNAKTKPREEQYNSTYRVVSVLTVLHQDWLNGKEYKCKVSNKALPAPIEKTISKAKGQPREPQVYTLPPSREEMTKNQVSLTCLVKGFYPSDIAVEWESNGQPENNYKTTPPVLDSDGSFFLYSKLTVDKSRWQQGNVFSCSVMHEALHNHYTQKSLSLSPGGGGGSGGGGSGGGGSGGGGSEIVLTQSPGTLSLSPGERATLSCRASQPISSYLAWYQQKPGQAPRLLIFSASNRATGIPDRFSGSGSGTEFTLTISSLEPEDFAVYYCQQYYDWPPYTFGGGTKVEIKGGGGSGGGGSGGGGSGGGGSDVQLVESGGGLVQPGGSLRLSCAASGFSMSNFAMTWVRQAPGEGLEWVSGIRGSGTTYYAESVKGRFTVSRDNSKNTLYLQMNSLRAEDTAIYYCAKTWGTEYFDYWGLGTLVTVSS
light: DIQMTQSPSSLSASVGDRVTITCRASQSVSSALAWYQQKPGKAPKLLIYAASYRQSGVPSRFSGSGSGTDFTLTISSLQPEDFAVYYCQQHYSNPWTFGQGTKLEIKRTVAAPSVFIFPPSDEQLKSGTASVVCLLNNFYPREAKVQWKVDNALQSGNSQESVTEQDSKDSTYSLSSTLTLSKADYEKHKVYACEVTHQGLSSPVTKSFNRGEC
B2: CD137 #3 (B21.V22) + FAP #5 (C3 VK1/VH4) (bispecific antibody, human IgG1, kappa, L234A L235A)
heavy: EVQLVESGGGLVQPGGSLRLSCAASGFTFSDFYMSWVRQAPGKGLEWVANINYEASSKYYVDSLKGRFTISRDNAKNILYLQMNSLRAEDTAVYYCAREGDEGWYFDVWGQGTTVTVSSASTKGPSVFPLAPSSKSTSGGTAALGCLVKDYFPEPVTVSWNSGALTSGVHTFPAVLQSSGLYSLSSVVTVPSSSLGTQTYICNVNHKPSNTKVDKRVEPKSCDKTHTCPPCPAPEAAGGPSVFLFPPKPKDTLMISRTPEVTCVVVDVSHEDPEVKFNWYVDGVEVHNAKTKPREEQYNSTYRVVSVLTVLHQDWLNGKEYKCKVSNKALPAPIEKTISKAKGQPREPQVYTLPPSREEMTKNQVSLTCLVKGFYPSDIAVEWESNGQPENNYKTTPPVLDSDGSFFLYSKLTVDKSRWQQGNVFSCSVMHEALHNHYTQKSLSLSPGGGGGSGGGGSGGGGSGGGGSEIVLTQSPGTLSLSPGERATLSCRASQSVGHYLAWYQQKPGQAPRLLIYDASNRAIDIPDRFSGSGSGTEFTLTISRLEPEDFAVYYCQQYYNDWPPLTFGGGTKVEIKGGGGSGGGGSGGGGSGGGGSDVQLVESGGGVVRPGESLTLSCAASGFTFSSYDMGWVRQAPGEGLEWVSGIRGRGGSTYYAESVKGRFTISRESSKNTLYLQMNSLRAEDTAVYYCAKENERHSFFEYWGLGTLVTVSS
light: B1 light
B3: CD137 #3 (B21.V22) + FAP #2 (A11 VK3/VH3) (bispecific antibody, human IgG1, kappa, L234A L235A)
heavy: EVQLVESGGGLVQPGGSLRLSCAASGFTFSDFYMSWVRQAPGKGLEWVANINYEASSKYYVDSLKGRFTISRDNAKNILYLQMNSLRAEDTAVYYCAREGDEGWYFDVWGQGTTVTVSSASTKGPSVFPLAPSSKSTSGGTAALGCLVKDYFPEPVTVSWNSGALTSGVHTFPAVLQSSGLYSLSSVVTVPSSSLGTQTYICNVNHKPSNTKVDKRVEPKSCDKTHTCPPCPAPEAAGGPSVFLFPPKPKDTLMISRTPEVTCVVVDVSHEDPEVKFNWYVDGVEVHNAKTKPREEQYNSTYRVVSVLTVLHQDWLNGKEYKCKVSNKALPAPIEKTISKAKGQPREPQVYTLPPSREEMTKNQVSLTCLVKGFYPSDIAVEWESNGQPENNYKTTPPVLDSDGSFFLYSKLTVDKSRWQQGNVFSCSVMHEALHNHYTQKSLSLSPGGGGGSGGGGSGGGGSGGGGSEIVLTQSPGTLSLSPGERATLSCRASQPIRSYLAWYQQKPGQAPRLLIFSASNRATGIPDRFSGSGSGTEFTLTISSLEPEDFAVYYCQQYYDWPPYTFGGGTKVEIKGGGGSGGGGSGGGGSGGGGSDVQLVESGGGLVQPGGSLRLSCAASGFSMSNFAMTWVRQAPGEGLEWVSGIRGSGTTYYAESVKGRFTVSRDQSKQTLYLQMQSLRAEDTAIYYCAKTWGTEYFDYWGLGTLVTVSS
light: B1 light
B4: CD137 #2 (B21.V16) + FAP #3 (A11 VK7/VH1) (bispecific antibody, human IgG1, kappa, L234A L235A)
heavy: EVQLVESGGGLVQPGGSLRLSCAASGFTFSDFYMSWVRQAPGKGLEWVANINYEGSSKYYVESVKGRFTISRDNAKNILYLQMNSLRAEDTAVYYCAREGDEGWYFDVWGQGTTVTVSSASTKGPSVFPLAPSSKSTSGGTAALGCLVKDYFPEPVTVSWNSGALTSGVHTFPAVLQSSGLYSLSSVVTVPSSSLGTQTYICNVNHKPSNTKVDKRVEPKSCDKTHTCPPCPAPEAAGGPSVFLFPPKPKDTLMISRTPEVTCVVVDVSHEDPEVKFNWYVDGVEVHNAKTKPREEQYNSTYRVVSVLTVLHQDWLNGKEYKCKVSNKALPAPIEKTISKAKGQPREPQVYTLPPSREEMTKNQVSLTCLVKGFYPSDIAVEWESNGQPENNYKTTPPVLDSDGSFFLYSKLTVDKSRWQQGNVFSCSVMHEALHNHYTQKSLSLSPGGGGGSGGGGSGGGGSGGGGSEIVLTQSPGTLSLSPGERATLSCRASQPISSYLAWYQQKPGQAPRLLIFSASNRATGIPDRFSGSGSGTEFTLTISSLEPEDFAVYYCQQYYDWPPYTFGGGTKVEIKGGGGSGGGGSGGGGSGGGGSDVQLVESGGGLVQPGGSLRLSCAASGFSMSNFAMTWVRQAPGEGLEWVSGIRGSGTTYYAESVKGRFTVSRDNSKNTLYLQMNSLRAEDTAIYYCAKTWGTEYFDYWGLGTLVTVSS
light: B1 light with R24K, S28D, V29I, L33V, A50S, Y53S, Q55Y, S56T
B5: CD137 #10 (A49.V48) + FAP #3 (A11 VK7/VH1) (bispecific antibody, human IgG1, kappa, L234A L235A)
heavy: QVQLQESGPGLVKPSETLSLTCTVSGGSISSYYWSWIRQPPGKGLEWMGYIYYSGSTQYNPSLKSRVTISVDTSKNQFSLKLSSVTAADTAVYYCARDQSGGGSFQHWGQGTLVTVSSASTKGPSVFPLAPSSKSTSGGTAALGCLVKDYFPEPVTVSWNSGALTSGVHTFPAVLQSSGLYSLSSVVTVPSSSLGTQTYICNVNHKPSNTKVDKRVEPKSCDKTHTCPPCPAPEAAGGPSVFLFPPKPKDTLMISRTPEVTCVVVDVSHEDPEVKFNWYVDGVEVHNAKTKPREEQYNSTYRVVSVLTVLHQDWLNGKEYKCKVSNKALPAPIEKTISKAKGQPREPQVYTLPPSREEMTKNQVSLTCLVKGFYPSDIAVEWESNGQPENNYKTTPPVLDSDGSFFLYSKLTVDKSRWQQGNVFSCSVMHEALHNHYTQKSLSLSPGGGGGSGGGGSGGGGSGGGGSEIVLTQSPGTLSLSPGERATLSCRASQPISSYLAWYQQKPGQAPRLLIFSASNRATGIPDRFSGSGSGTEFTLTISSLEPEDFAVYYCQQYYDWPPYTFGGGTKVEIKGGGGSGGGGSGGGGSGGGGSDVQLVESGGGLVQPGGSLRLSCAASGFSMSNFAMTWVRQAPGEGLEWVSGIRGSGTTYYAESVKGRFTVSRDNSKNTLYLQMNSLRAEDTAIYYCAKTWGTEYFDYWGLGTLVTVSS
light: EIVMTQSPLSLPVTPGEPASISCRSSQSLLYSQGYNHLDWYLQKPGQSPQLLIYGGSNRASGVPDRFSGSGSGTDFTLKISRVEAEDVGVYYCMQALQTPPTFGQGTKLEIKRTVAAPSVFIFPPSDEQLKSGTASVVCLLNNFYPREAKVQWKVDNALQSGNSQESVTEQDSKDSTYSLSSTLTLSKADYEKHKVYACEVTHQGLSSPVTKSFNRGEC
B6: CD137 #9 (A49.V47) + FAP #3 (A11 VK7/VH1) (bispecific antibody, human IgG1, kappa, L234A L235A)
heavy: not shown
light: B5 light
B7: CD137 #10 (A49.V48) + FAP #5 (C3 VK1/VH4) (bispecific antibody, human IgG1, kappa, L234A L235A)
heavy: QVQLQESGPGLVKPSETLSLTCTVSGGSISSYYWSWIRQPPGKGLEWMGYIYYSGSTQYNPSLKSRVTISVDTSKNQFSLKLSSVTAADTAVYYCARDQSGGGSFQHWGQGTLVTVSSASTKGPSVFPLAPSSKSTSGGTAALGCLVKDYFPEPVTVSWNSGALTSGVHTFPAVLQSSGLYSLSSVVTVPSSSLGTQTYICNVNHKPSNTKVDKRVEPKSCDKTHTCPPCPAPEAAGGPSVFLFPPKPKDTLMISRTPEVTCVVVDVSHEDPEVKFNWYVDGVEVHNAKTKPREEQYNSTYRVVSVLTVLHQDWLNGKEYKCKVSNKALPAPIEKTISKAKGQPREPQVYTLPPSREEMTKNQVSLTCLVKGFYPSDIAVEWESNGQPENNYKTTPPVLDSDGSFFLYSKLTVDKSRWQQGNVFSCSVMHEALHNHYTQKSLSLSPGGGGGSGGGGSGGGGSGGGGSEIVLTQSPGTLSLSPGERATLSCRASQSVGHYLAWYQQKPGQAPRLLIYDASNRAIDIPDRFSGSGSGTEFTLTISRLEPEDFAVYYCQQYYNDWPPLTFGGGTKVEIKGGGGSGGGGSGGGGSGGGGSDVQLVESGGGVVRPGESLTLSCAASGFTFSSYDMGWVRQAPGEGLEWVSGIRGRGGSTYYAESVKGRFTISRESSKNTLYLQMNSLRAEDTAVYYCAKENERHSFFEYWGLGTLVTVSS
light: B5 light
B8: CD137 #9 (A49.V47) + FAP #2 (A11 VK3/VH3) (bispecific antibody, human IgG1, kappa, L234A L235A)
heavy: not shown
light: B5 light
B9: CD137 #9 (A49.V47) + FAP #5 (C3 VK1/VH4) (bispecific antibody, human IgG1, kappa, L234A L235A)
heavy: not shown
light: B5 light
B10: CD137 #10 (A49.V48) + FAP #2 (A11 VK3/VH3) (bispecific antibody, human IgG1, kappa, L234A L235A)
heavy: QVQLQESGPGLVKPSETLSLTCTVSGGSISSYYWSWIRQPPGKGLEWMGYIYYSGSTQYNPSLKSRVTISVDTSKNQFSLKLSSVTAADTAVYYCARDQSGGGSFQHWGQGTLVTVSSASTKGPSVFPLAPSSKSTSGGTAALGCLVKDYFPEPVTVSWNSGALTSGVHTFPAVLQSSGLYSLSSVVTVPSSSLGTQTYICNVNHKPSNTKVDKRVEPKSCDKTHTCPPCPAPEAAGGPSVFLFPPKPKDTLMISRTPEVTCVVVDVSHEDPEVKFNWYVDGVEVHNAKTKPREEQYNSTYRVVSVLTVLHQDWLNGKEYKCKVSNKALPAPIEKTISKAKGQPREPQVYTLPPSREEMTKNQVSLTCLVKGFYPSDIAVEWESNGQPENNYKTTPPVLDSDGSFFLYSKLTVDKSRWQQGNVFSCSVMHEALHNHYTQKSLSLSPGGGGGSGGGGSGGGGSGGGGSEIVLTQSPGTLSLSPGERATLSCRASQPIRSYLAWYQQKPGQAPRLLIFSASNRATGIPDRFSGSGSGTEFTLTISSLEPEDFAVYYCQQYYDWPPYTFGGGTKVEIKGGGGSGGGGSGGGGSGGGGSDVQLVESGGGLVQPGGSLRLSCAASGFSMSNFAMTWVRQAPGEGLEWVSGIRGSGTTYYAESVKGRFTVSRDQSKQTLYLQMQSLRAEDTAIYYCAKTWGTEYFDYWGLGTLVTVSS
light: B5 light

How the values were obtained:
[1] = molecular target: T1, Human CD137 on Jurkat cells (human, UniProt Q07011 24-255); assay: cell-based or functional assay; set-up: IC90; Jurkat-CD137 NFkB-luciferase, HT1080-FAP co-culture / EC90; Jurkat-CD137 NFkB-luciferase, HT1080-FAP co-culture: unit not given beside the values
[2] = molecular target: T1, Human CD137 on Jurkat cells; assay: cell-based or functional assay

Row | Binder | EC90; Jurkat-CD137 NFkB-luciferase, HT1080-FAP co-culture [1] | IC90; Jurkat-CD137 NFkB-luciferase, HT1080-FAP co-culture [1] | Total AUC; Jurkat-CD137 NFkB-luciferase, HT1080-FAP co-culture [1] | Average EC50; Jurkat-CD137 NFkB-luciferase, HT1080-FAP co-culture [2] | Average EC90; Jurkat-CD137 NFkB-luciferase, HT1080-FAP co-culture [2] | Average IC50; Jurkat-CD137 NFkB-luciferase, HT1080-FAP co-culture [2] | Average IC90; Jurkat-CD137 NFkB-luciferase, HT1080-FAP co-culture [2] | Ratio IC50/EC50; Jurkat-CD137 NFkB-luciferase, HT1080-FAP co-culture [2] | Ratio IC90/EC90; Jurkat-CD137 NFkB-luciferase, HT1080-FAP co-culture [2]
1 | B1 | 2.41 | 144 | 1.9e+06 | – | – | – | – | – | –
2 | B2 | 2.18 | 87.8 | 2.3e+06 | – | – | – | – | – | –
3 | B3 | 1.42 | 69.6 | 2.4e+06 | – | – | – | – | – | –
4 | B4 | – | – | – | 0.082 nM | 0.613 nM | 361 nM | 48.4 nM | 4380 | 79.1
5 | B5 | 1.91 | 86.7 | 1.26e+07 | – | – | – | – | – | –
6 | B6 | 1.65 | 1.07 | 9.5e+06 | – | – | – | – | – | –
7 | B7 | 6.24 | 700 | 1.13e+07 | – | – | – | – | – | –
8 | B8 | 3.01 | 93.8 | 7.6e+06 | – | – | – | – | – | –
9 | B9 | 4.23 | 742 | 7.8e+06 | – | – | – | – | – | –
10 | B10 | 2.57 | 137 | 1.13e+07 | – | – | – | – | – | –
